Data set [1] has as its target T1, LaNTD (La 4-194) (Homo sapiens, UniProt P05455 4-194).
T1 sequence: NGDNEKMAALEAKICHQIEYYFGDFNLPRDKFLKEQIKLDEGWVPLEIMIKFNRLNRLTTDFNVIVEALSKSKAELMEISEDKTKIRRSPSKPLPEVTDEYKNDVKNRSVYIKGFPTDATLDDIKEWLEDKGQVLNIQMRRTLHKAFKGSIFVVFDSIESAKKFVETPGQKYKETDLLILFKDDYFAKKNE
Nature of the data set: X-ray crystallography; 2.1 A, C2; EMSA: ~1 nM radiolabeled RNA, protocol of Jacks et al. 2003 (buffer, salt, pH, temperature not given); NMR: 15N-LaNTD, RNA:protein 0.2-1.5:1, NMR buffer not given. To be noted: protein: recombinant; tags: N-terminal 6xHis removed by thrombin; leaves Gly-Ser; single strand. (In EMSA bound probe runs differently from free probe, usually more slowly.)

Data set [2] has as its target T2, LaNTD (La 1-194) (Homo sapiens, UniProt P05455 1-194).
T2 sequence: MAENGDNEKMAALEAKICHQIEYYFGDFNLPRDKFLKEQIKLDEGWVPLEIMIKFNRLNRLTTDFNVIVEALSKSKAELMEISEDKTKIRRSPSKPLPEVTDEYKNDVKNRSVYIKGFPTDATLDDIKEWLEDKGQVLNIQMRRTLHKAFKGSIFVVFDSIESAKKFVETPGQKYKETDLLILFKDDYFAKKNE
Nature of the data set: NMR HSQC titration; EMSA: ~1 nM radiolabeled RNA, protocol of Jacks et al. 2003 (buffer, salt, pH, temperature not given); NMR: 15N-LaNTD, RNA:protein 0.2-1.5:1, NMR buffer not given. The settings on record: protein: recombinant; single strand.

For data set [3], the target named is T2, LaNTD (La 1-194). Nature of the data set: NMR HSQC titration and relaxation; EMSA: ~1 nM radiolabeled RNA, protocol of Jacks et al. 2003 (buffer, salt, pH, temperature not given); NMR: 15N-LaNTD, RNA:protein 0.2-1.5:1, NMR buffer not given. To be noted: protein: recombinant; single strand.
Data set [4] deals with T2, LaNTD (La 1-194). Nature of the data set: EMSA; EMSA: ~1 nM radiolabeled RNA, protocol of Jacks et al. 2003 (buffer, salt, pH, temperature not given); NMR: 15N-LaNTD, RNA:protein 0.2-1.5:1, NMR buffer not given. To be noted: protein: recombinant, single strand.
Data set [5] concerns the target T1, LaNTD (La 4-194). Nature of the data set: X-ray crystallography; 1.8 A, P21212; only last two U modelled; EMSA: ~1 nM radiolabeled RNA, protocol of Jacks et al. 2003 (buffer, salt, pH, temperature not given); NMR: 15N-LaNTD, RNA:protein 0.2-1.5:1, NMR buffer not given. To be noted: protein: recombinant; tags: N-terminal 6xHis removed by thrombin; leaves Gly-Ser; single strand.

Data set [6] deals with T2, LaNTD (La 1-194). Nature of the data set: NMR HSQC titration; split resonances, two states; EMSA: ~1 nM radiolabeled RNA, protocol of Jacks et al. 2003 (buffer, salt, pH, temperature not given); NMR: 15N-LaNTD, RNA:protein 0.2-1.5:1, NMR buffer not given. The settings on record: protein: recombinant; single strand.
The target of data set [7] is T1, LaNTD (La 4-194). In words: X-ray crystallography; 2.8 A, C222; EMSA: ~1 nM radiolabeled RNA, protocol of Jacks et al. 2003 (buffer, salt, pH, temperature not given); NMR: 15N-LaNTD, RNA:protein 0.2-1.5:1, NMR buffer not given. To be noted: protein: recombinant; tags: N-terminal 6xHis removed by thrombin; leaves Gly-Ser; single strand.
Data set [8] addresses T2, LaNTD (La 1-194). Nature of the data set: EMSA; reference oligomer for relative Kd; EMSA: ~1 nM radiolabeled RNA, protocol of Jacks et al. 2003 (buffer, salt, pH, temperature not given); NMR: 15N-LaNTD, RNA:protein 0.2-1.5:1, NMR buffer not given. The settings on record: protein: recombinant; label: radiolabeled; single strand.

One may read the Kd as the concentration at which binding is half-saturated.

For the molecule AUAAUUU (ssRNA), the binding result with LaNTD (La 4-194) [1] is “binds”.
Turning to UCUU (ssRNA), the binding result with LaNTD (La 1-194) [2] is reported as “binds”.
Take UUUU (ssRNA): in the data set with LaNTD (La 1-194) [3], the binding result was “binds”.
Take UUU (ssRNA): the binding result in the data set with LaNTD (La 1-194) [3] was “binds”.
UUUUUUUUUU (ssRNA) [UUUUUUUUUU (U10)]: in the data set with LaNTD (La 1-194) [4] ((radiolabeled) in gel shift, unlabeled in NMR), the binding signal was 1 ± 0.4 Kd relative to CACACAAUUU (30 nM).
As for UUUUUUUU (ssRNA) [UUUUUUUU (U8)], the binding result in the data set with LaNTD (La 4-194) [5] is “binds”.
As to CACACAUUUU (ssRNA), the binding signal with LaNTD (La 1-194) [4] (label: radiolabeled) was 0.8 ± 0.3 Kd relative to CACACAAUUU (30 nM).
Same read-out and setting: the figure for CACACACCUU (ssRNA) is 2.4 ± 0.5 Kd relative to CACACAAUUU (30 nM).
For the molecule AUUUU (ssRNA), the binding result with LaNTD (La 1-194) [6] and with LaNTD (La 4-194) [7] was “binds” each time.
ACACACUUUU (ssRNA): the binding signal in the data set with LaNTD (La 1-194) [4] (label: radiolabeled) is 0.7 ± 0.2 Kd relative to CACACAAUUU (30 nM).
The same measure, in the same setting: the figure for CACACAAAUU (ssRNA) is 2.8 ± 1.1 Kd relative to CACACAAUUU (30 nM).
In the case of CACACAACUU (ssRNA), the binding signal with LaNTD (La 1-194) [4] (label: radiolabeled) was 2 ± 0.8 Kd relative to CACACAAUUU (30 nM).
On to CACACACUUU (ssRNA), for which the binding signal with LaNTD (La 1-194) [4] (label: radiolabeled) is 1.2 ± 0.4 Kd relative to CACACAAUUU (30 nM).
Regarding CACACAUAUU (ssRNA), the binding signal in the data set with LaNTD (La 1-194) [4] (label: radiolabeled) was 1 ± 0.2 Kd relative to CACACAAUUU (30 nM).
CACACAAUUU (ssRNA): in the data set with LaNTD (La 1-194) [8], the dissociation constant (Kd) is 30 nM.
With CACACAUCUU (ssRNA), the binding signal with LaNTD (La 1-194) [4] (label: radiolabeled) was 1.4 ± 0.5 Kd relative to CACACAAUUU (30 nM).
Take AUAUUUU (ssRNA): the binding result with LaNTD (La 4-194) [1] was “binds”.
